# Laboratory results taken from the supplement of paper PMC10724198.
# ± gives the standard deviation of the averaged measurements.
# Tested on: Saccharomyces cerevisiae
# Experiment: protein stability index of tFT-peptide fusion (C-terminal peptide) (PSI (0-1 scale)); higher = more stable (slower turnover)
# Settings: genetic background: wild type; temperature: 30 C
# Description: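 Multiplexed protein stability (MPS) profiling in S. cerevisiae. Random 12-aa peptides (tFT-X12 library) are fused to the C-terminus of a sfGFP-mCherry tandem fluorescent timer, after mCherry and a GGGS linker. Cells are FACS-sorted into 8 mCherry/sfGFP bins and deep-sequenced. The protein stability index (PSI) is the read-weighted bin average, scaled from 0 (unstable) to 1 (stable). Only peptides with >10 reads are reported; cells were grown at 30 °C in SC-His with glucose.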
# 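Note: PSI is a weighted mean of sequencing reads over stability bins, variants kept only with over 10 reads, mCherry proximal and sfGFP distal, peptide attached via GGGS linker.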
row,Sequence,protein stability index
1,LPRVSMTPTRVG,0.6535 ± 0.0029
2,GLSALVVCPSWG,0.65062 ± 0.00034
3,LRTLVARWIVGQ,0.515 ± 0.021
4,LPPPPPLPSSPL,0.685 ± 0.018
5,GARHTALCCPMG,0.623 ± 0.041
6,RLLPAPPPPTRP,0.693 ± 0.036
7,PVLRPPPPLSPP,0.734 ± 0.021
8,GATPRTAGRRPG,0.688 ± 0.038
9,RSSCVRGVTLAL,0.695 ± 0.023
10,PCPSPPALPLAP,0.696 ± 0.056
11,LHHLASPSPPTP,0.797 ± 0.015
12,LIPTIRRKHRAT,0.625 ± 0.014
13,SPTRALYISFFY,0.655 ± 0.075
14,PPSPPPPRPPSS,0.704 ± 0.055
15,WAGGFGGLGRDT,0.744 ± 0.0089
16,HAPFPPLLVSSL,0.625 ± 0.022
17,DLFSALWGEYVL,0.741 ± 0.013
18,HFAMCSTTFVIT,0.618 ± 0.029
19,LRRPAFCAFTST,0.715 ± 0.024
20,REVIGFLSYWKG,0.711 ± 0.14
21,CMGSDKAGKSVA,0.681 ± 0.016
22,NELSPSQDLPSS,0.671 ± 0.095
23,PPPARPAPLSPP,0.692 ± 0.08
24,PPPPPPPPPPRA,0.723 ± 0.035
25,RRTYERRVATSR,0.691 ± 0.031

row,Sequence,protein stability index
1,RAMWAGKGGDGW,0.738 ± 0.086
2,PLLPPPLSPFPH,0.659 ± 0.013
3,AAPAGAAKRWGT,0.641 ± 0.035
4,PRLSGLFLAPPS,0.707 ± 0.037
5,WCVEGRATGRGW,0.674 ± 0.018
6,VFCTFVGPRSDV,0.775 ± 0.13
7,SLYRKTLCMAYS,0.558 ± 0.019
8,RGFSLSCCERSI,0.749 ± 0.026
9,PPPRPPPAPLAS,0.705 ± 0.027
10,TGKHDIAQEQTK,0.679 ± 0.028
11,FPSLPSPSPSSH,0.684 ± 0.031
12,KKKKNKKKTKKT,0.784 ± 0.17
13,SFVFSVFGAGVD,0.778 ± 0.014
14,HVGEVESGGMGG,0.707 ± 0.03
15,YFCGRGSVLLVT,0.56 ± 0.014
16,AILGYFSLVEPP,0.542 ± 0.013
17,SGGQGCGGGWNV,0.708 ± 0.011
18,PLAFFSTRPTPF,0.697 ± 0.03
19,PLPHSPPPPPPT,0.736 ± 0.024
20,AVGGGVVGQGWV,0.604 ± 0.012
21,PPRQSHHPNPQH,0.682 ± 0.038
22,GFGPPGPCSYVR,0.691 ± 0.042
23,ESKRKLHSSRYS,0.6875 ± 0.0032
24,SPHVAPRKLQVS,0.56147 ± 0.00038
25,DRNGAQAEISFV,0.6 ± 0.041

row,Sequence,protein stability index
1,LPAHPPAAPGAP,0.692 ± 0.032
2,SSERVLVRRRGS,0.566 ± 0.12
3,LLGVRLGVLSFA,0.58 ± 0.01
4,CHVRSSILINRT,0.65 ± 0.1
5,SFILPFISPLLF,0.565 ± 0.022
6,RLRPRHPRLLRS,0.735 ± 0.034
7,IAEFRRDKIVKR,0.706 ± 0.07
8,GRDCSSHFIVPL,0.713 ± 0.029
9,PQVSYYLLPPSS,0.711 ± 0.11
10,IRNDERHSKNQD,0.74 ± 0.062
11,KRSVSIESMTQA,0.699 ± 0.011
12,GVLVFGLGLVRD,0.623 ± 0.027
13,RRRPSPKASILS,0.719 ± 0.011
14,PTETRRIGHHEG,0.661 ± 0.043
15,SPGFSPPFPPLS,0.776 ± 0.011
16,WSLGPDVCGGVV,0.708 ± 0.027
17,SWFVGFEGAVGG,0.7563 ± 0.0046
18,LLSPQPPSSPLP,0.69 ± 0.015
19,TTNGGPGNGAQN,0.66543 ± 0.00044
20,CFTPYNPSPLLS,0.715 ± 0.021
21,LSPAAPTHAYAA,0.72 ± 0.1
22,RSCFLSLFFFGF,0.653 ± 0.036
23,GCCCVMNQLRRR,0.777 ± 0.088
24,YRKGWRREVGGG,0.699 ± 0.011
25,SVGCRRGMDSRV,0.702 ± 0.04

row,Sequence,protein stability index
1,SELKNKKRKHAK,0.706 ± 0.034
2,KNFGHQGDVCRR,0.734 ± 0.037
3,EKSNQKSRRNSR,0.638 ± 0.15
4,CGEEVGGGVMIW,0.689 ± 0.015
5,LPWLTASRLVMR,0.714 ± 0.043
6,THPPPGPHPSAA,0.717 ± 0.017
7,RGRWRVGWGVGD,0.67 ± 0.017
8,IDYCWLPDGYQM,0.683 ± 0.068
9,YIKAPCMRQSGG,0.704 ± 0.019
10,SAAPVTLSRLPP,0.699 ± 0.071
11,PPLVSPPPPLPP,0.62 ± 0.015
12,EKGRSGVNILRV,0.653 ± 0.011
13,SPPLPARSQSSI,0.708 ± 0.029
14,REKDMIKSGIKS,0.724 ± 0.02
15,PPLTPPTPVPPG,0.6937 ± 0.0056
16,FYSRSVTLEVLH,0.605 ± 0.023
17,ETGGQTELKVVH,0.683 ± 0.084
18,LDKLLFIFNCGC,0.66 ± 0.044
19,KHKRDRNIYKVT,0.679 ± 0.026
20,SMAFLNQRPGIL,0.685 ± 0.017
21,TIETDIYAIARV,0.659 ± 0.041
22,LIISDVTGFSHL,0.6576 ± 0.0029
23,RQLSSFSDRSGS,0.715 ± 0.022
24,AGSSGGGAWWGE,0.681 ± 0.12
25,TTPTAPCLSSHD,0.69 ± 0.042

row,Sequence,protein stability index
1,SISLLIWLFSSC,0.637 ± 0.05
2,PDTLCAYLSFGS,0.776 ± 0.064
3,RLSPPGFRLGLF,0.517 ± 0.029
4,SHVARFMDEFCM,0.79 ± 0.038
5,PTLPSRYPPPMF,0.751 ± 0.01
6,SLLAVITSFPLR,0.687 ± 0.012
7,QRKYTLCVRPFP,0.697 ± 0.037
8,SPCMLLAVPHRL,0.728 ± 0.044
9,VLGKIIKLSTYS,0.629 ± 0.059
10,SGGGGGGDCVGA,0.687 ± 0.015
11,VSRGGVAYGRVG,0.742 ± 0.049
12,GTLDTDAGTINH,0.683 ± 0.025
13,FCSSSSFMCFVQ,0.629 ± 0.0082
14,GLGVMGVGCVGS,0.653 ± 0.054
15,LPRPPAPPMRYM,0.70928 ± 9.3e-05
16,GKNKSKKEKKEK,0.668 ± 0.032
17,WEACLGRPEAGM,0.724 ± 0.064
18,PLLRGFPAHLAS,0.699 ± 0.078
19,TPDLNLYSKVYG,0.695 ± 0.048
20,PPRPPRPSPPPP,0.72293 ± 8.1e-05
21,LPPPPRPPPPPP,0.663 ± 0.021
22,SLRMTVFTAPLS,0.654 ± 0.007
23,RVSACVDGHVFL,0.643 ± 0.0071
24,RGRWLKNARLSM,0.634 ± 0.065
25,SSTLVAFRFPSP,0.7014 ± 0.0043

row,Sequence,protein stability index
1,PIYRNKGNRGGI,0.739 ± 0.034
2,RGDGVRGGKNGR,0.689 ± 0.034
3,PEERSGTSAGRL,0.695 ± 0.038
4,VGSRLVYSAFNV,0.69 ± 0.01
5,VVATRYGGCFRR,0.669 ± 0.04
6,CAHKRTPRLGPE,0.66 ± 0.077
7,LFCARNGILLSV,0.516 ± 0.0084
8,PPFPHPSRLPPA,0.726 ± 0.028
9,PTCPAPLPPSSP,0.699 ± 0.061
10,PSFPSLLPPPPT,0.703 ± 0.025
11,PSSLATFLPWPI,0.739 ± 0.039
12,VARFRGGPVPSF,0.67 ± 0.045
13,LYTNLIGFNSWI,0.713 ± 0.037
14,SARWTSRIQDRS,0.652 ± 0.02
15,SPLLLSSPRPSP,0.735 ± 0.062
16,CFYSFWQVTRFL,0.477 ± 0.062
17,LLPSPLSLTFPL,0.616 ± 0.013
18,LVPSPLIFPSLG,0.783 ± 0.012
19,GRVAMAVSGGVG,0.638 ± 0.023
20,GLGEWGGRGVCG,0.692 ± 0.015
21,GGNRRIKEKSRL,0.785 ± 0.016
22,LVVSLGLFLLRH,0.549 ± 0.045
23,ICIGRDISNQSC,0.703 ± 0.021
24,FPGGGARAGVGV,0.724 ± 0.025
25,WGGGGWRGGGAR,0.747 ± 0.033

row,Sequence,protein stability index
1,PERWFPSTPSLP,0.702 ± 0.031
2,LLFSPTRVFLRY,0.49 ± 0.053
3,VTKAALADLRHM,0.609 ± 0.016
4,SVHTQLSPMDTT,0.64 ± 0.018
5,PGAFLRLSPPRA,0.7019 ± 0.0013
6,RGLRRIPDAPPH,0.757 ± 0.028
7,PGAGKRLIERVK,0.593 ± 0.062
8,PCPLAHSLWLMF,0.612 ± 0.056
9,LSSLYSSLTFFL,0.651 ± 0.014
10,EDHSCVFSAFCF,0.663 ± 0.045
11,SSYGPAKSLGCA,0.684 ± 0.023
12,TYNVVKSMVDNK,0.672 ± 0.026
13,LGCLVGVRFLGF,0.642 ± 0.032
14,FIWRFYSLPLGC,0.623 ± 0.069
15,PSPATCLCSPLP,0.7057 ± 0.0019
16,SVKESKIQQNRE,0.705 ± 0.11
17,LNCRCMLSRHCW,0.666 ± 0.032
18,RSSPVPLSCRKG,0.66 ± 0.037
19,PSHTPLPPSSLS,0.763 ± 0.089
20,APPPNPPRPSSR,0.754 ± 0.032
21,AGGGGGDAGRGV,0.744 ± 0.078
22,PLSLLVHPLPPS,0.679 ± 0.011
23,TISVNLYLPDLL,0.677 ± 0.057
24,TSGNSTALKMGR,0.741 ± 0.059
25,YASRVLCVGLVL,0.636 ± 0.094

row,Sequence,protein stability index
1,KSDKVYKQKPNT,0.705 ± 0.11
2,LWISDSGSLYFS,0.739 ± 0.018
3,VVYGVSHEETST,0.622 ± 0.018
4,LSLLPPLCFPSH,0.8215 ± 0.0043
5,AARQRWSLEFLD,0.65 ± 0.1
6,ISIVKENSSLTC,0.6552 ± 0.0053
7,HLSHVLLGITFV,0.603 ± 0.026
8,TARGIRGICKSI,0.711 ± 0.021
9,EEKREERGDRGR,0.579 ± 0.01
10,RCERKTGHHYRT,0.637 ± 0.072
11,RKNGEDLKKRGT,0.726 ± 0.077
12,VVDPDVIGREIR,0.706 ± 0.014
13,TAGIIINCPIYL,0.596 ± 0.038
14,FLSSPPPPLRVP,0.694 ± 0.054
15,FALPPPPHLNPP,0.6248 ± 0.0021
16,LSPLPPPAGHLP,0.646 ± 0.096
17,SCYTEQRVMICL,0.592 ± 0.0023
18,SVILRMIGQKIK,0.596 ± 0.038
19,NPFCPILPFALL,0.853 ± 0.069
20,VFGRGGRGGPLG,0.647 ± 0.049
21,APPPPPPAPPLP,0.591 ± 0.028
